From FireProtDB (doi:10.1110/ps.03220403)

B1: G186C, O00095 (parent)
chain: MKFLQVLPALIPAALAQTSCDQWATFTGNGYTVSNNLWGASAGSGFGCVTAVSLSGGASWHADWQWSGGQNNVKSYQNSQIAIPQKRTVNSISSMPTTASWSYSGSNIRANVAYDLFTAANPNHVTYSGDYELMIWLGKYGDIGPIGSSQGTVNVGGQSWTLYYGYNGAMQVYSFVAQTNTTNYSGDVKNFFNYLRDNKGYNAAGQYVLSYQFGTEPFTGSGTLNVASWTASIN
B2: C205G, Q8NJY3 (parent)
chain: MLKSALLLGAAAVSVQSASIPTIPANLEPRQIRSLCELYGYWSGNGYELLNNLWGKDTATSGWQCTYLDGTNNGGIQWSTAWEWQGAPDNVKSYPYVGKQIQRGRKISDINSMRTSVSWTYDRTDIRANVAYDVFTARDPDHPNWGGDYELMIWLARYGGIYPIGTFHSQVNLAGRTWDLWTGYNGNMRVYSFLPPSGDIRDFSCDIKDFFNYLERNHGYPAREQNLIVYQVGTECFTGGPARFTCRDFRADLW

Legend:
[1] = variants of: B1; conditions: Hypocrea jecorina; pH 8; Thermal; CD; Bis-Tris propane ammonium acetate 0.05 M 0.05 M; reversible: No; structure 1H8V; whole UniProt chain shown
[2] = variants of: B2; conditions: Trichocladium griseum; pH 8; Thermal; CD; Bis-Tris propane ammonium acetate 0.05 M 0.05 M; reversible: No; structure 1OLR; whole UniProt chain shown

| Variant | Tm [1] [°C] | change of melting temperature, mutant - wild type (higher = more stable) [1] [°C] | Tm [2] [°C] | change of melting temperature, mutant - wild type (higher = more stable) [2] [°C] |
| --- | --- | --- | --- | --- |
| G186C | 56.5 | 2.1 | – | – |
| G186C P217C | 55.1 | 0.7 | – | – |
| P217C | 58.3 | 3.9 | – | – |
| P217C V226C | 55.1 | 0.7 | – | – |
| P217C V226C G186C | 54.5 | 0.1 | – | – |
| V226C | 54.5 | 0.1 | – | – |
| C205G | – | – | 69.9 | 1.2 |
| C205S | – | – | 68.9 | 0.2 |
| C236P | – | – | 59.5 | -9.2 |
| C236S | – | – | 63.3 | -5.4 |
| C246S | – | – | 63.1 | -5.6 |
| C246V | – | – | 69.5 | 0.8 |
